The target of this experiment is human nucleophosmin (NPM; B23) (human) (UniProt P06748). In words: Scatchard analysis, increasing amounts of 125I-labelled antibody on intact cells (cell line not stated).
Chain of UniProt P06748 (P06748 whole entry): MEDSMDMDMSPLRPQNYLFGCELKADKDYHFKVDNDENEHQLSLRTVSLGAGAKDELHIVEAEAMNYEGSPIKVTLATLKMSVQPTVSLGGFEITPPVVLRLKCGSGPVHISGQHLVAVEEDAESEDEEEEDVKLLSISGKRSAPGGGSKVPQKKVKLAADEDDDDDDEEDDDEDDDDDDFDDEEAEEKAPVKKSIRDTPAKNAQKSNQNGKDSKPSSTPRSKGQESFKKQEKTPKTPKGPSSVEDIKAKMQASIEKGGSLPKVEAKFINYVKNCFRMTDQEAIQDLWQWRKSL

What is called Kd is the constant that tells how readily two partners part at equilibrium. Low values mean a tighter complex, high ones a looser complex. Turning to “mouse monoclonal anti-nucleophosmin antibody (Zymed Laboratories, catalog no. 32-5200)”, the Kd is 8.2 nM.

Source of the values: patent publication US20050009119A1.
